These are literature values, as cited in PMC3201939.

This data set deals with Cys22 (UniProt position 23, FIKPTCPYCRR).

As to “Glutaredoxin 1 (Grx1, thioltransferase) (Homo sapiens)”, the pKa is given as 3.5.

In general, pKa refers to the negative logarithm of the acid dissociation constant.
